Tests used:
[1] = molecular target: synthetic peptide representing C-terminus of S6 protein
[2] = molecular target: ribosomal protein S6 (in purified 40S ribosomal subunits from liver)

B1: EE-tag/p70β^S6k (p70β-II isoform, N-terminal EE-tag) (protein)
chain: MAAVFDLDLETEEGSEGEGEPELSPADACPLAELRAAGLEPVGHYEEVELTETSVNVGPERIGPHCFELLRVLGKGGYGKVFQVRKVQGTNLGKIYAMKVLRKAKIVRNAKDTAHTRAERNILESVKHPFIVELAYAFQTGGKLYLILECLSGGELFTHLEREGIFLEDTACFYLAEITLALGHLHSQGIIYRDLKPENIMLSSQGHIKLTDFGLCKESIHEGAVTHTFCGTIEYMAPEILVRSGHNRAVDWWSLGALMYDMLTGSPPFTAENRKKTMDKIIRGKLALPPYLTPDARDLVKKFLKRNPSQRIGGGPGDAADVQRHPFFRHMNWDDLLAWRVDPPFRPCLQSEEDVSQFDTRFTRQTPVDSPDDTALSESANQAFLGFTYVAPSVLDSIKEGFSFQPKLRSPRRLNSSPRVPVSPLKFSPFEGFRPSPSLPEPTELPLPPLLPPPPPSTTAPLPIRPPSGTKKSKRGRGRPGR
[1]
  in vitro kinase reaction: phosphorylation of the synthetic peptide: p70β^S6k (p70β-II isoform) also phosphorylates this peptide but with slightly lower efficiency than observed with p70α^S6k
[2]
  in vitro kinase reaction: phosphorylation of S6 protein in 40S subunits: p70β^S6k (p70β-II isoform) phosphorylates the S6 protein in vitro nearly as efficiently as p70α^S6k
